Results published in patent US20240036044A1 (GEMINA LABORATORIES, published 2024).

Experiments:
[1] = biological target: T1, recombinant SARS-CoV-2 Nucleocapsid protein antigen (Z03488, Genscript) (SARS-CoV-2, UniProt P0DTC9 1-419); assay: dot blot dipstick, gold nanoparticles with EMT-003 alone
T1 construct: also called SARS-CoV-2 Nucleocapsid antigen; NC

[2] = biological target: T2, recombinant SARS-CoV-2 Spike protein antigen (Z03501, Genscript) (SARS-CoV-2, UniProt P0DTC2 16-685); assay: dot blot dipstick assay, gold nanoparticle conjugate without antibody
T2 construct: also called SARS-CoV-2 Spike antigen; S antigen

[3] = biological target: Monoclonal antibody against the SARS-CoV-2 Spike protein (A02038, Genscript)
[4] = biological target: Monoclonal antibody against the SARS-CoV-2 Nucleocapsid protein (A02039, Genscript)

B1: gold-binding fusion protein EMT003 (protein G' - linker - gold-binding peptide EMT015) (other)
chain: MTYKLILNGKTLKGETTTEAVDAATAEKVFKQYANDNGVDGEWTYDDATKTFTVTEKPEVIDASELTPAVTTYKLVINGKTLKGETTTEAVDAATAEKVFKQYANDNGVDGEWTYDDATKTFTVTEKPEVIDASELTPAVTTYKLVINGKTLKGETTTKAVDAETAEKAFKQYANDNGVDGVWTYDDATKTFTVTEGGGGSGGGGSGGGGSASGGGMHGKTQATSGTIQSMHGKTQATSGTIQSMHGKTQATSGTIQSMHGKTQATSGTIQSMHGKTQATSGTIQSMHGKTQATSGTIQSMHGKTQATSGTIQS
notes: also called EMT-03; Gold fusion protein
For B1, the binding result [1] was “no binding”, the binding result [2] was “no binding (tested: 0.5 µg antigen spotted)” and the Kd [3] was 0.192 nM. It also gave a koff [3] of 0.000103 s⁻¹, a kon [3] of 537000 M⁻¹ s⁻¹ and a Kd [4] of 0.258 nM. The koff [4] was 0.000149 s⁻¹ and the kon [4] was 577000 M⁻¹ s⁻¹.
